Test results taken from the supplement of paper PMC10567573.

B1: ADD1 (parent)
chain: GEGTGSPPKWQIGEQEFEALMRML
B2: TMEM175 (parent)
chain: SCTIIFLASIFQLAMWTTALLHQA

Variants of: B1
Assay: protein stability index of a GFP-peptide fusion (GPS, HEK-293T) (PSI 1-6); higher = more stable
Conditions: c terminus: a fixed tail appended
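Further: lentivirally expressed fusions sorted by FACS into six bins by GFP to DsRed ratio, PSI derived from sequencing read proportions per bin multiplied by bin number.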

| Variant | protein stability index |
| --- | --- |
| GEGTGSPGKWQIGEQEFEALMRML | 3 |
| GEGTGSPHKWQIGEQEFEALMRML | 2.56 |
| GEGTGSPTKWQIGEQEFEALMRML | 2.85 |
| GEGTGSPDKWQIGEQEFEALMRML | 3.84 |
| GEGTGSPKKWQIGEQEFEALMRML | 2.52 |
| GEGTGSPWKWQIGEQEFEALMRML | 2.29 |
| GEGTGSPMKWQIGEQEFEALMRML | 2.63 |
| CEGTGSPPKWQIGEQEFEALMRML | 2.88 |
| FEGTGSPPKWQIGEQEFEALMRML | 3.06 |
| DEGTGSPPKWQIGEQEFEALMRML | 3.66 |
| TEGTGSPPKWQIGEQEFEALMRML | 2.94 |
| REGTGSPPKWQIGEQEFEALMRML | 3.26 |
| KEGTGSPPKWQIGEQEFEALMRML | 2.91 |
| GEGTGSPPKWQIHEQEFEALMRML | 3.29 |
| GEGTGSPPKWQIPEQEFEALMRML | 3.74 |
| GEGTGSPPKWQIDEQEFEALMRML | 3.65 |
| GEGTGSPPKWQIMEQEFEALMRML | 2.94 |
| GEGTGSPPKWQIIEQEFEALMRML | 2.92 |
| GEGTGSPPKWQIQEQEFEALMRML | 3.58 |
| GEGTGSPPKWQIFEQEFEALMRML | 2.69 |
| GEGTGPPPKWQIGEQEFEALMRML | 2.95 |
| GEGTGWPPKWQIGEQEFEALMRML | 2.19 |
| GEGTGYPPKWQIGEQEFEALMRML | 2.59 |
| GEGTGIPPKWQIGEQEFEALMRML | 2.75 |

| Variant | protein stability index |
| --- | --- |
| GEGTGEPPKWQIGEQEFEALMRML | 3.45 |
| GEGTGSPPKCQIGEQEFEALMRML | 2.93 |
| GEGTGSPPKNQIGEQEFEALMRML | 4.19 |
| GEGTGSPPKFQIGEQEFEALMRML | 3.26 |
| GEGTGSPPKLQIGEQEFEALMRML | 3.06 |
| GEGTGSPPKSQIGEQEFEALMRML | 4.2 |
| GEGTGSPPKDQIGEQEFEALMRML | 4.58 |
| GEGTGSPPKKQIGEQEFEALMRML | 3.57 |
| GEGTGSPPKMQIGEQEFEALMRML | 3.27 |
| GEGTGSPPKWQIGEQEFEALCRML | 3.18 |
| GEGTGSPPKWQIGEQEFEALVRML | 3.11 |
| GEGTGSPPKWQIGEQEFEALHRML | 4.16 |
| GEGTGSPPKWQIGEQEFEALRRML | 3.18 |
| GEGTGSPPMWQIGEQEFEALMRML | 2.93 |
| GEGTGSPPFWQIGEQEFEALMRML | 2.8 |
| GEGTGSPPTWQIGEQEFEALMRML | 2.95 |
| GEGTGSPPRWQIGEQEFEALMRML | 3.07 |
| GEGTGSPPDWQIGEQEFEALMRML | 3.33 |
| GEGTGSPPKWQIGPQEFEALMRML | 2.93 |
| GEGTGSPPKWQIGWQEFEALMRML | 1.97 |
| GEGTGSPPKWQIGYQEFEALMRML | 1.8 |
| GEGTGSPPKWQIGFQEFEALMRML | 2.1 |
| GEGTGSPPKWQIGRQEFEALMRML | 2.6 |
| GEGTGSPPKWQIGEQEFEALMRMV | 3.06 |

| Variant | protein stability index |
| --- | --- |
| GEGTGSPPKWQIGEQEFEALMRMW | 3.57 |
| GEGTGSPPKWQIGEQEFEALMRMS | 3.92 |
| GEGTGSPPKWQIGEQEFEALMRMR | 4.34 |
| GEGTGSPPKWQIGEQEFEALMRME | 4.98 |
| GEGTGSPPKWQIGEQEFEALMRMQ | 4.74 |
| GEGTGSPPKWQIGEQEFEALMRMI | 3.52 |
| GEGTGSPPKWQIGEQEFEALMRMA | 3.83 |
| GEGTGSPPKWQIGEQEFEALMRMG | 4.1 |
| GEGTGSPPKWQIGEQEFEALMRMM | 3.89 |
| GEGTGSPPKWQIGEEEFEALMRML | 3.33 |
| GEGTGSPPKWQIGELEFEALMRML | 2.22 |
| GEGTGSPPKWQIGEGEFEALMRML | 2.99 |
| GEGTGSPPKWQIGEAEFEALMRML | 2.75 |
| GEGTGSPPKWQIGEDEFEALMRML | 3.48 |
| GEGTGSPPKWQIGEPEFEALMRML | 3.51 |
| GEGTGSPPKWQIGEMEFEALMRML | 2.6 |
| GEGTGSPPKWQIGEWEFEALMRML | 1.86 |
| GEGTGSPPKWQIGEREFEALMRML | 2.59 |
| GEGTGSPPKWQIGETEFEALMRML | 3.09 |
| GEGTGSPPKWQIGEVEFEALMRML | 2.39 |
| GEGTVSPPKWQIGEQEFEALMRML | 3.09 |
| GEGTASPPKWQIGEQEFEALMRML | 3.39 |
| GEGTKSPPKWQIGEQEFEALMRML | 2.15 |
| GCGTGSPPKWQIGEQEFEALMRML | 3.14 |

| Variant | protein stability index |
| --- | --- |
| GIGTGSPPKWQIGEQEFEALMRML | 4.01 |
| GQGTGSPPKWQIGEQEFEALMRML | 3.53 |
| GHGTGSPPKWQIGEQEFEALMRML | 2.96 |
| GDGTGSPPKWQIGEQEFEALMRML | 2.79 |
| GTGTGSPPKWQIGEQEFEALMRML | 3.33 |
| GLGTGSPPKWQIGEQEFEALMRML | 3.15 |
| GEGTGSPPKWQIGEQEFEAPMRML | 4.45 |
| GEGTGSPPKWQIGEQEFEAWMRML | 3.61 |
| GEGTGSPPKWQIGEQEFEAHMRML | 4.97 |
| GEGTGSPPKWQIGEQEFEAGMRML | 4.67 |
| GEGTGSPPKWQIGEQEFEAAMRML | 4.61 |
| GEGTGSPPKWQIGEQEFEAFMRML | 3.07 |
| GEGTGSPPKWQIGEQEFEAMMRML | 3.64 |
| GEGTGSPPKWQIGEQETEALMRML | 3.75 |
| GEGTGSPPKWQIGEQELEALMRML | 3.37 |
| GEGTGSPPKWQIGEQEYEALMRML | 3.94 |
| GEGTGSPPKWQIGEQEAEALMRML | 3.92 |
| GEGTGSPPKWQIGEQEMEALMRML | 3.52 |
| GEGTGSPPKWQIGEQEIEALMRML | 3.15 |
| GEGNGSPPKWQIGEQEFEALMRML | 3.07 |
| GEGLGSPPKWQIGEQEFEALMRML | 3.38 |
| GEGFGSPPKWQIGEQEFEALMRML | 2.35 |
| GEGIGSPPKWQIGEQEFEALMRML | 2.75 |
| GEGVGSPPKWQIGEQEFEALMRML | 2.98 |

| Variant | protein stability index |
| --- | --- |
| GEGMGSPPKWQIGEQEFEALMRML | 3.01 |
| GEGGGSPPKWQIGEQEFEALMRML | 3.14 |
| GEGQGSPPKWQIGEQEFEALMRML | 3.08 |
| GEGKGSPPKWQIGEQEFEALMRML | 2.13 |
| GEGPGSPPKWQIGEQEFEALMRML | 3.06 |
| GEGTGSAPKWQIGEQEFEALMRML | 2.92 |
| GEGTGSVPKWQIGEQEFEALMRML | 2.62 |
| GEGTGSKPKWQIGEQEFEALMRML | 3.23 |
| GEGTGSGPKWQIGEQEFEALMRML | 2.52 |
| GEGTGSTPKWQIGEQEFEALMRML | 2.23 |
| GEGTGSMPKWQIGEQEFEALMRML | 2.33 |
| GEGTGSSPKWQIGEQEFEALMRML | 2.45 |
| GEGTGSPPKWQIGEQEFEILMRML | 2.39 |
| GEGTGSPPKWQIGEQEFEQLMRML | 3.65 |
| GEGTGSPPKWQIGEQEFEYLMRML | 3.09 |
| GEGTGSPPKWQIGEQEFENLMRML | 4.03 |
| GEGTGSPPKWQIGEQYFEALMRML | 1.71 |
| GEGTGSPPKWQIGEQHFEALMRML | 2.8 |
| GEGTGSPPKWQIGEQPFEALMRML | 2.61 |
| GEGTGSPPKWQIGEQLFEALMRML | 1.4 |
| GEGTGSPPKWQIGEQRFEALMRML | 2.51 |
| GEGTGSPPKWQIGEQMFEALMRML | 1.74 |
| GEGTGSPPKWQSGEQEFEALMRML | 3.83 |
| GEGTGSPPKWQCGEQEFEALMRML | 3.27 |

| Variant | protein stability index |
| --- | --- |
| GEGTGSPPKWQLGEQEFEALMRML | 3.06 |
| GEGTGSPPKWQYGEQEFEALMRML | 3.69 |
| GEGTGSPPKWQMGEQEFEALMRML | 3.38 |
| GEGTGSPPKWQVGEQEFEALMRML | 3.22 |
| GEGTGSPPKWQTGEQEFEALMRML | 3.7 |
| GEGTGSPPKWAIGEQEFEALMRML | 2.86 |
| GEGTGSPPKWGIGEQEFEALMRML | 2.66 |
| GEGTGSPPKWVIGEQEFEALMRML | 2.86 |
| GEGTGSPPKWWIGEQEFEALMRML | 3.04 |
| GEGTGSPPKWQIGEQEFQALMRML | 3.22 |
| GEGTGSPPKWQIGEQEFIALMRML | 2.37 |
| GEGTGSPPKWQIGEQEFCALMRML | 2.82 |
| GEGTGSPPKWQIGEQEFMALMRML | 2.95 |
| GEGTGSPPKWQIGEQEFPALMRML | 3.39 |
| GEGTGSPPKWQIGEQEFTALMRML | 3 |
| GEGTGSPPKWQIGEQEFHALMRML | 2.1 |
| GEGTGSPPKWQIGEQEFNALMRML | 2.47 |
| GEGTGSPPKWQIGEQEFYALMRML | 2.08 |
| GEGTGSPPKWQIGEQEFEALMLML | 2.09 |
| GEGTGSPPKWQIGEQEFEALMWML | 2.2 |
| GEGTGSPPKWQIGEQEFEALMMML | 2.55 |
| GEGTGSPPKWQIGEQEFEALMHML | 2.92 |
| GEGTGSPPKWQIGEQEFEALMPML | 3.75 |
| GEGTGSPPKWQIGEQEFEALMSML | 3.44 |

| Variant | protein stability index |
| --- | --- |
| GEETGSPPKWQIGEQEFEALMRML | 3.07 |
| GEHTGSPPKWQIGEQEFEALMRML | 2.94 |
| GESTGSPPKWQIGEQEFEALMRML | 2.87 |
| GEKTGSPPKWQIGEQEFEALMRML | 2.64 |
| GERTGSPPKWQIGEQEFEALMRML | 3.14 |
| GETTGSPPKWQIGEQEFEALMRML | 3.54 |
| GEITGSPPKWQIGEQEFEALMRML | 3 |
| GEATGSPPKWQIGEQEFEALMRML | 3.42 |
| GEQTGSPPKWQIGEQEFEALMRML | 3.8 |
| GEMTGSPPKWQIGEQEFEALMRML | 3.01 |
| GELTGSPPKWQIGEQEFEALMRML | 3.45 |
| GEGTGSPPKWQIGEQEFEALMRCL | 3.74 |
| GEGTGSPPKWQIGEQEFEALMRDL | 5.08 |
| GEGTGSPPKWQIGEQEFEALMRVL | 3.43 |
| GEGTGSPPKWQIGEQEFEALMRNL | 4.8 |
| GEGTGSPPKWQIGEQEFEALMREL | 5.04 |
| GEGTGSPPKWQIGEQEFEALMRFL | 2.52 |
| GEGTGSPPKWQIGEQEFEALMRGL | 4.56 |
| GEGTGSPPKWQIGEQEFEALMRLL | 2.74 |

Variants of: B2
Assay: as above
Conditions: c terminus: a fixed tail appended

| Variant | protein stability index |
| --- | --- |
| TCTIIFLASIFQLAMWTTALLHQA | 2.86 |
| DCTIIFLASIFQLAMWTTALLHQA | 2.62 |
| MCTIIFLASIFQLAMWTTALLHQA | 2.14 |
| HCTIIFLASIFQLAMWTTALLHQA | 2.8 |
| ACTIIFLASIFQLAMWTTALLHQA | 2.72 |
| CCTIIFLASIFQLAMWTTALLHQA | 3.31 |
| GCTIIFLASIFQLAMWTTALLHQA | 2.3 |
| ECTIIFLASIFQLAMWTTALLHQA | 1.31 |
| KCTIIFLASIFQLAMWTTALLHQA | 2.29 |
| NCTIIFLASIFQLAMWTTALLHQA | 2.02 |
| LCTIIFLASIFQLAMWTTALLHQA | 2.96 |
| RCTIIFLASIFQLAMWTTALLHQA | 4.91 |
| WCTIIFLASIFQLAMWTTALLHQA | 2.14 |
| YCTIIFLASIFQLAMWTTALLHQA | 1.75 |
| QCTIIFLASIFQLAMWTTALLHQA | 1.64 |
| ICTIIFLASIFQLAMWTTALLHQA | 3.24 |
| SLTIIFLASIFQLAMWTTALLHQA | 2.87 |
| SATIIFLASIFQLAMWTTALLHQA | 3.34 |
| SETIIFLASIFQLAMWTTALLHQA | 2.64 |
| SITIIFLASIFQLAMWTTALLHQA | 1.73 |
| SGTIIFLASIFQLAMWTTALLHQA | 3.98 |
| SFTIIFLASIFQLAMWTTALLHQA | 2.66 |
| SDTIIFLASIFQLAMWTTALLHQA | 3.24 |
| SKTIIFLASIFQLAMWTTALLHQA | 3.34 |
| SHTIIFLASIFQLAMWTTALLHQA | 3.33 |
